The RNAGym collection of RNA variant scans (doi:10.1073/pnas.2313332121)
Variants at the floor of the assay were thinned out.

B1: TPR 5TU (parent)
chain: GGAUCUUCUCGAUCUAACAAAAAAGACAAAUCUGCCACAAAGCUUGAGAGCAUCUUCGGAUGCAGAGGCGGCAGCCUUCGGUGGCGCGAUAGCGCCAACGUUCUCAACUAUGACACGCAAAACGCGUGCUCCGUUGAAUGGAGUUUAUCAUG

Variants of: B1
Experiment: polymerase ribozyme fitness, log enrichment relative to wild type (log ratio); higher = more active; in vitro selection for triplet polymerase activity
Method in brief: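 Both subunits of a heterodimeric triplet polymerase ribozyme were given their own mutant library, built by PCR and transcribed. Each library was annealed with a biotinylated primer, the partner subunit and triplets, incubated frozen at −7 °C, and its extended constructs gel-excised, captured on streptavidin beads and amplified by RT-PCR, all in one round done in triplicate. Fitness is the logarithm of genotype enrichment relative to wild-type enrichment, with replicates averaged by inverse-variance weighting. That logarithm is base 2, and Illumina-sequenced genotypes needed ≥10 input reads and ≥1 read per output.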

Row | Variant | polymerase ribozyme fitness (log ratio)
1 | GGAUCUUACCGAUCUAAAGAAAAAGACAAAUCUGCCACAAAGCUUGAGAGCAUCUUCUGAUGCAGAGGCGGCAGCCUUCGGUGACGCGAUAGCGCCAACGUUCUCAACUAUGACACGCAAAACGCGUGCUCCGUUGAAUGGAGCUUCUCAUG | ≤ -4.2
2 | GGAUCUUGUCGAUCUAACAAAAAAGACAAAUCUGCCACCAAGCUUGAGAGCAUCUUCGGAUGCAGAGGCGGCAGCCCUCGGUGGCGCGAUAGCGCCAACGUUCGCAACUAUGACCCGCAAAACGCGUGCUCCGUUGAAUGGAGUUUAUCAUG | ≤ -4.2
3 | GGAUCUUAUCGAUCUAACAAAAAAGACAAAUCUGCCACAAAGCUUGAGAGCAUCUUCGGAUACAGAGGCGGCAGCCUUCGGUGGCGCGAUAACGCCAACGUUCUCAACUAUGACACGCAAAACGCGUGCUCCGUUGAAUGGAGUUUAUCAUG | ≤ -4.2
4 | GGAUCUUGUCGAUCUAACAAAAAAGACAAAUCUGCCACAAAGCUUGAGAGCAUCUUCGGAUGCAGAGGCGGCAGCCUUCGGUGGCGCGAUAGCGCCAACGUUCUCAACUAUGACACGCAAAACGCGUGCUCCGUUGAAUGGAGUUUAUCAUG | -2.95
5 | GGAUCUUGUCGAUCUAACAAAAAAGACAAAUCUGCCACAUAGCUUGAGAGCAACUUCGGAUGCAGAGGCGGCAGCCUUCGGUGGCGAGAUAGCGCCAACGUUCUCAAGUAUGACACGCAAAACGCGUGCUCCGUUGAAUGGAGUUUAUCAUG | ≤ -4.2
6 | GGAUCUUGUCGAUCUAACAAAACAGACAAUUCUGCCACAAAGCUUGAGAGCAUCUUCGAAUGCAGAGGCGGCAGCCUUCGGUGGCGCGAUAGCGACAACGUUCUCAACUAUGACACGCUAAACGCGUGCUCCGUUGAAUGCAGUUUAUCAUG | ≤ -4.2
7 | GGAUCUUGUCGAUCUAACAACAAAGACAAAUCUGCCACAAAGCUUGAGAGCAUCUUCGGAUGCAGAGGCGGCAGCCAUCGGUGGCGCGAUAACGCCAACGUUCUCAACUAUGACACGAAAAACGCGUGCUCCGUUUAAUGGAGUUUAUCAUG | ≤ -4.2
8 | GGAUCUUGUCGAUCUCACAAGAAAGACAAAUCUGCCACAAAGCUUGACAGCAUCUUCGGAUGCAGAGGCGGCAGACUUCGGUGGCGUGAUAGCGCCAACGUUCUCAACUUUGACACGCAAAACGCGUGCUCCGUUGAAUGGAGGUUAUCAUG | ≤ -4.2
9 | GGAUCUUAUCGAUCGAACAAAAAAGACAAAUCUGCCACAAAGCUUGAGAGCAUCUUCGCAUGCAGAGGCGGCAGCCUUCGGUGGCGCGAUAGCGCCAACGUUCUCAACUAUGAUACGCAAAACGCGUGCUCCGUUGAGUGGAGUUUAUCAUG | ≤ -4.2
10 | GGAUCUUGUCGAUCUUACAAAAAAGACAAAUCUGCCCCAAAGCUUGAGAGCAUCUUCGGAUGCAGAGGCGGCCGCCUUCGGUGACGCGAUAGCGCCAACGUUCUCAACUAUGACACGCAAAACGCGUGCUCCGUUGAACGGAGUUUAUCAUG | ≤ -4.2
11 | GGAUCUUGUCGAUCUCACAAAAAAGACAAAUCUGCCACAAAGCUUGAGAGCAUCUUCGGAUGCAGAGGCGGCAGCCUUCGGUGGCGCGAUAGUGCCAACGUUCUCAACUAUGACACGCAAAACGCGUGCUCCGUUGGAUGGAGUUUAUCAUG | ≤ -4.2
12 | GGAUCUUGUCGAUCUAACAAGAAAGAAAAAUCUGCCACAAAGCUUGAGAGCAUCUUCGGAUGCAGAGGCGGCCGCCUUCGGUGGCGCGAUACCGCCAACGUUCGCAACUAUGACACGCAAAACGCGUGCUCCGUUGAAUGGAGUUUAUCUUG | ≤ -4.2
13 | GGAUCUUGUCGAUCUUACAAAAAAGACAAAUCUGCGACAAAGCUUGAGAGCAUCUUCGGAUGCAGAGGCGGCAGCCUUCGGUGGCGCGAUAGCGCCAACGUUCUCAACUAUGACACGCAAAACGCGUGCUCCGUUGAAUGGAGUUUAUCAUG | ≤ -4.2
14 | GGAUCUUAUCGAUCUAACAAAAAAGACAAAUCUGCCACAAAGCUUGAGAGCAUCUUCGGAUGCAGAGGCGGCAGCCUUCGGUGGCAUGAUAGCGCCAACGUUCUCAACUAUGACACGCAAAACGCGUGCUCCGUUGAUUGGAGUUUAUCAUG | ≤ -4.2
15 | GGAUCUUGUCGAUCUAACAAAAAAGACAAAUCUGCCACUAAGCUUUAGAGCAUCUUCGGAUGCAGAGCCGGCAGCCUUUGGUAGCGCGAUAGCGCCAACGUACUCAACUAUGACACGCAAAACGCGUGCUCCGUUGAAUGGAGUUUAUCAUG | ≤ -4.2
16 | GGAUCUUAUCGAUCUAACAAAAAAGACAAAUCUGCCACAAAACUUGAGCGCAUCUUCGGAUGCAGAGGCGGCAGCCUUCGGUUGCGCGAUAGAACCAACGUUCUCAACUAUGACACGCAAAACGCGUGCUCCGUUGAAUGGAGUUUAUCAUG | ≤ -4.2
17 | GGAUCUUGUCGAUCUAACAAAAAUGGCAAAUCUGCCACAAAGCUUGAGAGCCUCUUCGGAUGCAGAGGCGGCAGCCUUCGGUGGCGCGAUAGGGCCAACGUUCUCAACUAUGACACGCAAAACGCGUGCUCCGUUGAAUGGAGUUUAUCAUG | ≤ -4.2
18 | GGAUCUUAUCGAUCUAACAAAAAAGACAAAUCCGCCACAAAGCAUGAGAGCUUCUUCGGAUGCAGAGGCGGCAGCCUUCGGUGGUGCGAUAGCGCCAACGUUCACGACUAUGACACGCAAAACGGGUGCUCCGUUGAAUGGAGUUUAUCAUU | ≤ -4.2
19 | GGAUCUUAUCGAUCUAACAAAAAAGACAAAUCUGCCACAAAGCUUGAGAGCAUCUUCGGAUGCAGAUGCGGCAGCCAUCGGUUGCGGGAUAGCGCCAACGUUCUCAACUAUGACACGCAAAACGCGUGCUCCGAUGAAUGCAGGUUAUCAUG | ≤ -4.2
